Laboratory results as given in patent publication US20240317858A1 (Adimab, published 2024).
Residue numbers refer to the chain shown, from its start.

B1: Antibody No. A001 (ADI-26906) IgG1 (antibody, V domains shown)
VH: QVQLVQSGAEVKKPGASVKVSCKASGFNIKDYYMHWVRQAPGQRLEWMGWIDLENANTIYDAKFQGRVTITRDTSASTAYMELSSLRSEDTAVYYCARDAYGRYFYDVWGQGTLVTVSS
VL: DIVMTQSPDSLAVSLGERATINCKSSQSLLNARTGKNYLAWYQQKPGQPPKLLIYWASTRESGVPDRFSGSGSGTDFTLTISSLQAEDVAVYYCKQSYSRRTFGGGTKVEIK
notes: IgG1, CHO-produced
B2: Antibody No. V012 (ADI-70329) IgG1 (antibody, V domains shown)
VH: B1 VH with I29D, M48I, N57E, I59V, G66D
VL: B1 VL with T5S, E61S, K95V, S99F
notes: IgG1, CHO-produced
B3: Antibody No. V011 (ADI-70328) IgG1 (antibody, V domains shown)
VH: B1 VH with K30D, M48I, A56D, I59V
VL: B1 VL with T5S, E61S, K95V, S99F
notes: IgG1, CHO-produced
B4: Antibody No. V002 (ADI-67445) IgG1 (antibody, V domains shown)
VH: B1 VH with N57E, G66D, V108E
VL: B1 VL
notes: IgG1, CHO-produced
B5: Antibody No. V013 (ADI-70330) IgG1 (antibody, V domains shown)
VH: B1 VH with K30D, M48I, I59V, Y60D
VL: B1 VL with T5S, E61S, K95V, S99F
notes: IgG1, CHO-produced
B6: Antibody No. A002 (ADI-50024) IgG1 (antibody, V domains shown)
VH: B1 VH with M48I, I59V
VL: B1 VL with T5S, E61S, K95V, S99F
notes: IgG1, CHO-produced
B7: Antibody No. V009 (ADI-70326) IgG1 (antibody, V domains shown)
VH: B1 VH with N28D, M48I, D52E, N57D, I59V
VL: B1 VL with T5S, E61S, K95V, S99F
notes: IgG1, CHO-produced
B8: Antibody No. V010 (ADI-70327) IgG1 (antibody, V domains shown)
VH: B1 VH with N28D, M48I, D52E, A56D, N57D, I59V
VL: B1 VL with T5S, E61S, K95V, S99F
notes: IgG1, CHO-produced
B9: Antibody No. V007 (ADI-67450) IgG1 (antibody, V domains shown)
VH: B1 VH with K30D, Y60D
VL: B1 VL
notes: IgG1, CHO-produced

Each binder was assayed against T1, Cynomolgus CD3 on HSC-F cells (cynomolgus, UniProt Q95LI5 22-198) (assay: flow cytometry, 100 nM IgG).
T1 construct: whole, on cells; Target is the endogenous CD3 complex on cells; also called Cyno CD3 HSC-F cells; Cyno CD3+ HSC-F cells
T1 sequence (Q95LI5 22-198): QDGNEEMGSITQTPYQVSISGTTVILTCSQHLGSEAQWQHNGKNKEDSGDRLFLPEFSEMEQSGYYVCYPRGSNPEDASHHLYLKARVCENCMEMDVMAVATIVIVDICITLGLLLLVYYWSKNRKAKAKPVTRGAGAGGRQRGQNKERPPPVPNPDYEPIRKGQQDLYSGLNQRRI
Method: (§1) Specificity of the anti-CD3 antibodies for human CD3+ Jurkat cells and Cynomolgus monkey HSC-F cells was determined using a FACS cell binding assay. Briefly, cells were thawed and washed with cold PBSF buffer (PBS+0.1% BSA, pH 7.4). About 200,000 cells were aliquoted per well of a 96-well plate and pelleted by centrifugation (5 minutes at 500×g). The cells were washed and resuspended in 100 μl PBSF with CHO-produced anti-CD3 IgG antibody (100 nM). The mixture (cells+antibody) was incubated for 20 minutes on ice, then washed twice with PBSF. Cells were resuspended in 50 μl of propidium iodide (1:500 dilution) and anti-human IgG-RPE (1:100 dilution) prepared in PBSF, then incubated for 20 minutes on ice in the dark before cells were washed twice with PBSF. Binding was analyzed on FACS Canto II. Also shown are results using cells without CD3 [CHO-S cells, Jurkat CD3 knockout (CD3−) cells, and HEK cells] for comparison, including results with Jurkat CD3-cells combined with anti-CD3 antibody Fab fragments (100 nM).

MFI [MFI]	Binder
6050	B1
5800	B2
5910	B3
5960	B4
5740	B5
6310	B6
6230	B7
5860	B8
5490	B9

Each binder was assayed against T2, Human CD3 on CD3+ Jurkat cells (human, UniProt P07766 23-207) (assay: flow cytometry, 100 nM IgG).
T2 construct: whole, on cells; Target is the endogenous CD3 complex on cells; also called Human CD3+ Jurkat cells
T2 sequence (P07766 23-207): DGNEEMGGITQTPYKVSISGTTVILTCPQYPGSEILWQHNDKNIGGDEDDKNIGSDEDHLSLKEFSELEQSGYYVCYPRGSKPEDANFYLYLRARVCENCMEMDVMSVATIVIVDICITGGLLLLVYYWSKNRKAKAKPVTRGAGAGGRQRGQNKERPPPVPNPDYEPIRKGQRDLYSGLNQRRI
Method: as §1

MFI [MFI]	Binder
3150	B1
3020	B2
3000	B3
3040	B4
2950	B5
3410	B6
3070	B7
2910	B8
2930	B9

What follows are binders tested against T1, Cynomolgus CD3 on HSC-F cells (assay: flow cytometry, 100 nM IgG1, pH 7.4).
Method: (§2) Cell binding assays. CD3+ human Jurkat cells (ATCC) and CHO-S cells (Invitrogen/ThermoFisher) were thawed and washed with cold PBSF buffer, pH 7.4 (PBS+0.1% BSA, pH 7.4). About 200,000 cells were aliquoted per well of a 96-well plate (FACS Assay Plate VWR BD 353263) and pelleted by centrifugation (5 minutes at 500×g). The cells were washed with either PBSF pH 7.4 or PBSF pH 6.0 (PBS+0.1% BSA, pH 6.0), and then resuspended in 100 μl in either PBSF pH 7.4 or PBSF pH 6.0 with IgG1 antibody (100 nM) produced in yeast as described above or in CHO cells. The mixture (cells+antibody) was incubated for 20 minutes on ice, then washed twice with either PBSF pH 7.4 or PBSF pH 6.0. Cells were resuspended in 50 μl of propidium iodide (Roche; 1:500 dilution) and anti-human IgG-RPE (Southern Biotech; 1:100 dilution) prepared in either PBSF pH 7.4 or PBSF pH 6.0, then incubated for 20 minutes on ice in the dark before cells were washed twice with either PBSF pH 7.4 or PBSF pH 6.0. Binding was analyzed on FACS Canto II.
(§3) Anti-CD3 antibodies A001-A005, V002, V004, V007, V009, V010, V013, and V014-V019 were produced as IgG1s in CHO cells, and binding to human CD3+ Jurkat cells and cynomolgus CD3+ HSC-F cells at pH 7.4 was analyzed by flow cytometry as described in Example 2. NCB (Normalized Cell Binding) values were calculated based on control and sample MFI values as NCB={(Sample MFI)−(Secondary only MFI)}/(Secondary only MFI).

NCB (Normalized Cell Binding)	Binder
400	B1
388	B4
374	B5
417	B6
396	B7
378	B8
368	B9

What follows are binders tested against T2, Human CD3 on CD3+ Jurkat cells (assay: flow cytometry, 100 nM IgG1, pH 7.4).
Method: as §2, §3

NCB (Normalized Cell Binding)	Binder
289	B1
320	B4
295	B5
366	B6
309	B7
298	B8
287	B9
